Test results as given in PMC2562705 (Biochemistry, 2008).
Where two headings read alike, the source gives them in different places.

Legend:
[1] = molecular target: RhamD from Gibberella zeae (Fusarium graminearum, UniProt D0VX14); conditions: kinetic data not shown
[2] = molecular target: T1, RhamD from Azotobacter vinlandii (Azotobacter vinelandii, UniProt C1DMY1); test: dehydration activity; type: biochemical; conditions: kinetic data not shown
T1 sequence (C1DMY1 1-394): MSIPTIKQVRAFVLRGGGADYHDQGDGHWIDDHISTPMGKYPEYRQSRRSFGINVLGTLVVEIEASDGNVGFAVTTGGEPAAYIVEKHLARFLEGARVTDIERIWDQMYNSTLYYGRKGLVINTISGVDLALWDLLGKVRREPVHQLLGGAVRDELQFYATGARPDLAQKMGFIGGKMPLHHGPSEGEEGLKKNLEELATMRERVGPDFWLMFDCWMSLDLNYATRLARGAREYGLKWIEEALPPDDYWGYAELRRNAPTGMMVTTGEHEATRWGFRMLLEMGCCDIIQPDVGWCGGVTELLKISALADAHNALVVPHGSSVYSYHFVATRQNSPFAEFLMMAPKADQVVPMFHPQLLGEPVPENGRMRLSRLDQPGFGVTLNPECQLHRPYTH

[3] = molecular target: the molecule itself; test: crystal structure
[4] = molecular target: the molecule itself; test: crystal structure; remark: listed apart in the source
[5] = substrate: O=C(O)[C@H](O)[C@H](O)[C@@H](O)CO; test: dehydration; type: biochemical, Escherichia coli; conditions: 5 mM MgCl2, Tris-HCl pH 7.9 or K-Hepes pH 7.5, 25 °C
[6] = substrate: C[C@H](O)[C@H](O)[C@@H](O)[C@@H](O)C(=O)O; test: dehydration; type: biochemical, Escherichia coli; conditions: 5 mM MgCl2, Tris-HCl pH 7.9 or K-Hepes pH 7.5, 25 °C
[7] = substrate: O=C(O)[C@H](O)[C@H](O)[C@@H](O)[C@@H](O)CO; test: dehydration; type: biochemical, Escherichia coli; conditions: 5 mM MgCl2, Tris-HCl pH 7.9 or K-Hepes pH 7.5, 25 °C
[8] = substrate: O=C(O)[C@H](O)[C@H](O)[C@@H](O)CO; test: dehydration; type: biochemical, Salmonella enterica; conditions: 5 mM MgCl2, Tris-HCl pH 7.9 or K-Hepes pH 7.5, 25 °C
[9] = substrate: C[C@H](O)[C@H](O)[C@@H](O)[C@@H](O)C(=O)O; test: dehydration; type: biochemical, Salmonella enterica; conditions: 5 mM MgCl2, Tris-HCl pH 7.9 or K-Hepes pH 7.5, 25 °C
[10] = substrate: O=C(O)[C@H](O)[C@H](O)[C@@H](O)[C@@H](O)CO; test: dehydration; type: biochemical, Salmonella enterica; conditions: 5 mM MgCl2, Tris-HCl pH 7.9 or K-Hepes pH 7.5, 25 °C

Chain of RhamD from Gibberella zeae (D0VX14 1-450): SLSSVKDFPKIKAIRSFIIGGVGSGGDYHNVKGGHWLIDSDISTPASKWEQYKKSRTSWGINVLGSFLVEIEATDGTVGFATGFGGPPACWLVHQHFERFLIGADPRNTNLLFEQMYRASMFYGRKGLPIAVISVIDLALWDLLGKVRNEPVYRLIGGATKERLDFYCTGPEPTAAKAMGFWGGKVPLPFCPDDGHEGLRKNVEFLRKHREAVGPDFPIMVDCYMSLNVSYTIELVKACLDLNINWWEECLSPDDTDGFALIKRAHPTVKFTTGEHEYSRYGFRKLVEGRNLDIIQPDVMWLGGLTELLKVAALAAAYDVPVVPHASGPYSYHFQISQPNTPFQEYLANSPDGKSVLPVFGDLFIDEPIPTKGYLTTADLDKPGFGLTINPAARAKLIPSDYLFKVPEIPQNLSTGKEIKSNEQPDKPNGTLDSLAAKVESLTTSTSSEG

## C[C@H](O)[C@H](O)[C@@H](O)[C@@H](O)C(=O)O [L-rhamnonate]
[1]
  dehydration activity: Each of these homologues catalyzes the RhamD reaction
[2]
  dehydration activity: Each of these homologues catalyzes the RhamD reaction

B1: L-rhamnonate dehydratase (RhamD) from Salmonella typhimurium LT2 (enzyme)
chain: ENIMTLPKIKHVRAWFIGGATAEKGAGGGDYHDQGGNHWIDDHIATPMSKYRDYEQSRQSFGINVLGTLIVEVEAENRQTGFAVSTAGEMGCFIVEKHLNRFIEGKCVSDIKLIHDQMLGATMYYSGSGGLVMNTISCVDLALWDLFGKVVGLPVYKLLGGAVRDEIQFYATGARPDLAKEMGFIGGKMPTHWGPHDGDAGIRKDAAMVADMREKCGPDFWLMLDCWMSQDVNYATKLAHACAPFNLKWIEECLPPQQYEGYRELKRNAPAGMMVTSGEHHGTLQSFRTLAETGIDIMQPDVGWCGGLTTLVEIAALAKSRGQLVVPHGSSVYSHHAVITFTNTPFSEFLMTSPDCSTLRPQFDPILLDEPVPVNGRIHKSVLDKPGFGVELNRDCHLKRPYSH
[3]
  stoichiometry N: 8

B2: L-rhamnonate dehydratase (RhamD) from Escherichia coli K-12 (enzyme, E. coli K-12)
chain: MTLPKIKQVRAWFTGGATAEKGAGGGDYHDQGANHWIDDHIATPMSKYRDYEQSRQSFGINVLGTLVVEVEAENGQTGFAVSTAGEMGCFIVEKHLNRFIEGKCVSDIKLIHDQMLSATLYYSGSGGLVMNTISCVDLALWDLFGKVVGLPVYKLLGGAVRDEIQFYATGARPDLAKEMGFIGGKMPTHWGPHDGDAGIRKDAAMVADMREKCGEDFWLMLDCWMSQDVNYATKLAHACAPYNLKWIEECLPPQQYESYRELKRNAPVGMMVTSGEHHGTLQSFRTLSETGIDIMQPDVGWCGGLTTLVEIAAIAKSRGQLVVPHGSSVYSHHAVITFTNTPFSEFLMTSPDCSTMRPQFDPILLNEPVPVNGRIHKSVLDKPGFGVELNRDCNLKRPYSH
[4]
  stoichiometry N: 8
[5]
  Km: 2000 ± 300 µM
  kcat: 0.6 ± 0.03 s⁻¹
  kcat/Km: 300 M⁻¹ s⁻¹
[6]
  Km: 150 ± 70 µM
  kcat: 3.2 ± 0.2 s⁻¹
  kcat/Km: 21000 M⁻¹ s⁻¹
[7]
  Km: 150 ± 60 µM
  kcat: 0.2 ± 0.1 s⁻¹
  kcat/Km: 1300 M⁻¹ s⁻¹

B3: YfaW / ecRhamD (RhamD from E. coli K-12) (Escherichia coli K-12; H277N) (protein)
chain: MTLPKIKQVRAWFTGGATAEKGAGGGDYHDQGANHWIDDHIATPMSKYRDYEQSRQSFGINVLGTLVVEVEAENGQTGFAVSTAGEMGCFIVEKHLNRFIEGKCVSDIKLIHDQMLSATLYYSGSGGLVMNTISCVDLALWDLFGKVVGLPVYKLLGGAVRDEIQFYATGARPDLAKEMGFIGGKMPTHWGPHDGDAGIRKDAAMVADMREKCGEDFWLMLDCWMSQDVNYATKLAHACAPYNLKWIEECLPPQQYESYRELKRNAPVGMMVTSGENHGTLQSFRTLSETGIDIMQPDVGWCGGLTTLVEIAAIAKSRGQLVVPHGSSVYSHHAVITFTNTPFSEFLMTSPDCSTMRPQFDPILLNEPVPVNGRIHKSVLDKPGFGVELNRDCNLKRPYSH
[6]
  Km: 8800 ± 900 µM
  kcat: 0.09 ± 0.01 s⁻¹
  kcat/Km: 10 M⁻¹ s⁻¹

B4: YfaW / ecRhamD (RhamD from E. coli K-12) (Escherichia coli K-12; H325N) (protein)
chain: MTLPKIKQVRAWFTGGATAEKGAGGGDYHDQGANHWIDDHIATPMSKYRDYEQSRQSFGINVLGTLVVEVEAENGQTGFAVSTAGEMGCFIVEKHLNRFIEGKCVSDIKLIHDQMLSATLYYSGSGGLVMNTISCVDLALWDLFGKVVGLPVYKLLGGAVRDEIQFYATGARPDLAKEMGFIGGKMPTHWGPHDGDAGIRKDAAMVADMREKCGEDFWLMLDCWMSQDVNYATKLAHACAPYNLKWIEECLPPQQYESYRELKRNAPVGMMVTSGEHHGTLQSFRTLSETGIDIMQPDVGWCGGLTTLVEIAAIAKSRGQLVVPNGSSVYSHHAVITFTNTPFSEFLMTSPDCSTMRPQFDPILLNEPVPVNGRIHKSVLDKPGFGVELNRDCNLKRPYSH
[6]
  Km: 300 ± 30 µM
  kcat: 0.0005 ± 0.0001 s⁻¹
  kcat/Km: 1.6 M⁻¹ s⁻¹

B5: stRhamD (RhamD from S. typhimurium LT2) (Salmonella enterica subsp. enterica serovar Typhimurium str. LT2) (protein)
chain: MENIMTLPKIKHVRAWFIGGATAEKGAGGGDYHDQGGNHWIDDHIATPMSKYRDYEQSRQSFGINVLGTLIVEVEAENRQTGFAVSTAGEMGCFIVEKHLNRFIEGKCVSDIKLIHDQMLGATMYYSGSGGLVMNTISCVDLALWDLFGKVVGLPVYKLLGGAVRDEIQFYATGARPDLAKEMGFIGGKMPTHWGPHDGDAGIRKDAAMVADMREKCGPDFWLMLDCWMSQDVNYATKLAHACAPFNLKWIEECLPPQQYEGYRELKRNAPAGMMVTSGEHHGTLQSFRTLAETGIDIMQPDVGWCGGLTTLVEIAALAKSRGQLVVPHGSSVYSHHAVITFTNTPFSEFLMTSPDCSTLRPQFDPILLDEPVPVNGRIHKSVLDKPGFGVELNRDCHLKRPYSH
[8]
  Km: 1600 ± 1200 µM
  kcat: 0.05 ± 0.03 s⁻¹
  kcat/Km: 30 M⁻¹ s⁻¹
[9]
  Km: 250 ± 80 µM
  kcat: 3.9 ± 1.6 s⁻¹
  kcat/Km: 16000 M⁻¹ s⁻¹
[10]
  Km: 60 ± 40 µM
  kcat: 0.1 ± 0.06 s⁻¹
  kcat/Km: 1700 M⁻¹ s⁻¹
